Changes are numbered by the printed parent chain.

First the molecules themselves.
T1: Fc Receptor-like 5 (FcRL5), full length, overexpressed on 3T3 or Raji cells (human, UniProt Q96RD9 16-977)
T1 construct: also called 3T3-FcRL5
T1 sequence: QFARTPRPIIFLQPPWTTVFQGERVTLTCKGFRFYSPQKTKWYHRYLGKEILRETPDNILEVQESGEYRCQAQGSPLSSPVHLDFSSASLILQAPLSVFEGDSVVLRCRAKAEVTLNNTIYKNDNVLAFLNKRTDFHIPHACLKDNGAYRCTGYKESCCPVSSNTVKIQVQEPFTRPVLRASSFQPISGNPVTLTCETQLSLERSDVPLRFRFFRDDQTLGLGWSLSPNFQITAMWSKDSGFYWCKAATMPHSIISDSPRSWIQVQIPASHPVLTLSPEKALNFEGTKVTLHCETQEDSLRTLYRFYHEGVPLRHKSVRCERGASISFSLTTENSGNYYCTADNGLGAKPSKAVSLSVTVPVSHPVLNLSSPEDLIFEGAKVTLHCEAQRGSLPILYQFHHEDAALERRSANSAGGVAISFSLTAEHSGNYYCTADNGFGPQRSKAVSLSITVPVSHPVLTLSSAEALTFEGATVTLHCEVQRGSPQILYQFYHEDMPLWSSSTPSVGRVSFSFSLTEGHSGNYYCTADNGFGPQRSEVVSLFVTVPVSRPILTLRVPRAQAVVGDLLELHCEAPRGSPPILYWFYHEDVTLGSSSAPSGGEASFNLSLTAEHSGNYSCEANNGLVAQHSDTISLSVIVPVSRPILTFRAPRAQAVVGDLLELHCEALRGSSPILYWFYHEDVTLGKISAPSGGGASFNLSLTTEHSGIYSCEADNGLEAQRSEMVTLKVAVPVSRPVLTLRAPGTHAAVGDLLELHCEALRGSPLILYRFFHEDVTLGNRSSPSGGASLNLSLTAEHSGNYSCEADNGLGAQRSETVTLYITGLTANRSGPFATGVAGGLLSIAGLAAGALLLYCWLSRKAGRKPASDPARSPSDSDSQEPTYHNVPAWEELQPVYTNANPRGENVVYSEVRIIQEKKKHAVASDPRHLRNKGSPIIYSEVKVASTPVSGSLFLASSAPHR

T2: FcRL1, overexpressed on 3T3 cells (UniProt Q96LA6 17-429, limits assumed)
T2 construct: whole, on cells
T2 sequence (looked up): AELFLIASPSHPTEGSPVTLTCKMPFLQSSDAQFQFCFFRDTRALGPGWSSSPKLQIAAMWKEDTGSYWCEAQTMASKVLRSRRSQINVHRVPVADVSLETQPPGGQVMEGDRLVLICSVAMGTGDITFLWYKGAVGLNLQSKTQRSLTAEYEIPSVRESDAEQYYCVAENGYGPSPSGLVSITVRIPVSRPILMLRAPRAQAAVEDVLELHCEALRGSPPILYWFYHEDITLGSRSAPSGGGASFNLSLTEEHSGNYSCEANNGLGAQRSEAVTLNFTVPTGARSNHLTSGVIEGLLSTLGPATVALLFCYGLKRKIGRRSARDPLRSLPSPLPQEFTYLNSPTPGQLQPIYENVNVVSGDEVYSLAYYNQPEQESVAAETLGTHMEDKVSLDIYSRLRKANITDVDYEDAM

B1: ET200-002 (scFv)
scFv: NFMLTQPHSVSESPGKTVTISCTRSSGSIASNYVQWYQQRPGSAPTTVIYEDNQRPSGVPDRFSGSIDSSSNSASLTISGLKTEDEADYYCQSYDSSNSVVFGGGTKLTVLGSRGGGGSGGGGSGGGGSLEMAQVQLVQSGTEVKKPGASVRVACKASGYPFNKYDINWVRQAPGQGLEWMGGIIPIFRTTNYAQKFQGRVTITADESTSTAYMELSSLRSEDTAVYYCAREWFYWDIWGQGTLVTVSSTSGQAGQHHHHHHGAYPYDVPDYAS
notes: screened as phage clone; entry is VL-linker-VH-His tag-HA tag
B2: ET200-032 (scFv)
scFv: LPVLTQPPSASGTPGQRVTISCSGSSSNVGSYTVNWYRQLPGTAPTLLIYNNNQRPSGVPDRFSDSKSGTSASLTISGLQPEDEADYYCAAWDDRLGGYVFGTGTKVTVLGSRGGGGSGGGGSGGGGSLEMAEVQLVQSGAEVKKPGESLKISCKGSGYSFTNYWIGWVRQMPGKGLEWMGIIYPGDSDTRYSPSFQGQVTISADKSISTAYLQWSSLKASDTAMYYCARSTGSSHMSDEWGQGTLVTVSSTSGQAGQHHHHHHGAYPYDVPDYAS
notes: as for B1
B3: ET200-027 (scFv)
scFv: QSVLTQPPSVSGAPGQGVTIPCTGSSSNIGAGYDVHWYQQLPGTAPKLLIYGNNNRPSGVPDRFSGSRSGSSASLAITGLQAEDEADYYCQSYDSSLSDVVFGGGTKVTVLGSRGGGGSGGGGSGGGGSLEMAEVQLVQSGAEVKKPGATVKISCKVSGYTFTDYYMHWVQQAPGKGLEWMGLVDPEDGETIYAEKFQGRVTITADTSTDTAYMELSSLRSEDTAVYYCARYWSYSFDYLYMPEGNDWWGQGTLVTVSSTSGQAGQHHHHHHGAYPYDVPDYAS
notes: as for B1
B4: ET200-028 (scFv)
scFv: QSVLTQPPAASGTPGQRVTISCSGGVSNIGSGALNWYQQLPGTAPKLLIYSYNQRPSGVSDRFSGSRSATSASLAISGLQSEDEADYYCATWDDSVNGWVFGGGTKLTVLGSRGGGGSGGGGSGGGGSLEMAQVQLVQSGAEVKKPGDSVKVSCKPSGYNFLNYGINWVRQAPGQGLEWMGWISTYTGNTNYAQKLQGRVTFTTDTSTSTAYMEMRSLRSDDTAVYYCARDLYYYEGVDYWGQGTLVTVSSTSGQAGQHHHHHHGAYPYDVPDYAS
notes: as for B1
B5: ET200-023 (scFv)
scFv: LPVLTQPPSVSVAPGKTARITCGGNNIGSKSVHWYQQKPGQAPVLVVYADSDRPSGIPERFSGSNSGNTATLTISRVEAGDEADYYCQVWDSSSYHNYVFGTGTKVTVLGSRGGGGSGGGGSGGGGSLEMAEVQLVQSGAEVKKPGASVKVSCKASGYTFTSYGISWVRQAPGQGLEWMGWISAYNGNTNYAQKLQGRVTMTTDTSTSTAYMELSSLRSEDTAMYYCARYWGFGVSDRWGQGTLVTVSSTSGQAGQHHHHHHGAYPYDVPDYAS
notes: as for B1
B6: ET200-033 (scFv)
scFv: NFMLTQPHSVSESPGKTVTISCTGSSGSIASNYVQWYQQRPGSAPTTVIYEDNQRPSGVPDRFSGSIDSSSNSASLTISGLKTEDEADYYCQSYDSSNHWVFGGGTKLTVLGSRGGGGSGGGGSGGGGSLEMAQVQLQQWGAGLLKPSETLSLTCAVYGGSFSGYYWSWIRQPPGKGLEWIGEITHSGRSNYNPSLKSRVTISVDTSKNQFSLKLSSVTAADTAVYYCARSSIMSDYWGQGTLVTVSSTSGQAGQHHHHHHGAYPYDVPDYAS
notes: as for B1
B7: ET200-029 (scFv)
scFv: QAVLTQPPSVSVAPGKTARVTCGGNNIGSESVHWYQQKPGQAPVLVIYYDTDRPSGIPERFSGSHSGTTATLTISRVEAGDEADYYCQVWDSSRDHVVFGGGTKLTVLGSRGGGGSGGGGSGGGGSLEMAQVQLVQSGGGVVQPGRSLRLSCAASGFTFSSYAMHWVRQAPGKGLEWVAVISYDGSNKYYADSVKGLFTISRDNSKNTLYLQMNSLRAEDTAVYYCARSYFTSGFYDYWGQGTLVTVSSTSGQAGQHHHHHHGAYPYDVPDYAS
notes: as for B1
B8: ET200-031 (scFv)
scFv: SYVLTQPPSVSVAPGKTARITCGGNNIGSKSVHWYQQKPGQAPVLVIYYDSDRPSGIPERFSGSNSGNTATLTISRVEAGDEADYYCQVWDSSSDYVFGTGTKVTVLGSRGGGGSGGGGSGGGGSLEMAEVQLVETGGGLVKPGGSLRLSCAASGFTVSDYYMSWIRQAPGKGLEWISYISGSGNSIYYADSVKGRFTISRDNAKNSLDLQMTSLRAEDTAVYYCARSTKFDYWGQGTLVTVSSTSGQAGQHHHHHHGAYPYDVPDYAS
notes: screened as phage clone; entry is VL-linker-VH-His tag-HA tag; also called ET200-31
B9: ET200-034 (scFv)
scFv: QSVLTQPPSVSGAPGQRVTISCTGSTSNIGAGYDVHWYQQLPGTAPKLLINNNRNRPSGVPDRFSGSKSGTSATLGITGLQTGDEADYYCGTWDGSLTGAVFGGGTKLTVLGSRGGGGSGGGGSGGGGSLEMAEVQLVQSGAEVKKPGSSVKVSCKASGGTFSSYAISWVRQAPGQGLEWMGGIIPIFGTANYAQKFQGRVTITADESTSTAYMELSSLRSEDTAVYYCARGSALDHYDRWGQGTLVTVSSTSGQAGQHHHHHHGAYPYDVPDYAS
notes: as for B1
B10: ET200-039 (scFv)
scFv: NFMLTQPHSVSESPGKTVTISCTRSSGSIASNYVQWYQQRPGSSPTTVIYEDNQRPSGVPDRFSGSIDSSSNSASLTISGLKTEDEADYYCQSYDSSNWVFGGGTKLTVLGSRGGGGSGGGGSGGGGSLEMAEVQLVQSGAEVKKPGSSVKVSCKASGGTFSSYAISWVRQAPGQGLEWMGGIIPIFGTANYAQKFQGRVTITADESTSTAYMELSSLRSEDTAVYYCARSNYYYNDYWGQGTLVTVSSTSGQAGQHHHHHHGAYPYDVPDYAS
notes: screened as phage clone; entry is VL-linker-VH-His tag-HA tag; also called ET200-39
B11: ET200-026 (scFv)
scFv: B10 scFv with R24G, S44A, S231N, Y233H
notes: as for B1
B12: ET200-035 (scFv)
scFv: B10 scFv with S44A, S97T, E133Q, S231Y, Y235F
notes: as for B1
B13: ET200-030 (scFv)
scFv: QSVVTQPPSVSGAPGQRVTISCTGSSSNIGAGYDVNWYQQFPGTAPKLLIYGNSNRPSGVPDRFSGSKSGTSASLAITGLQAEDEADYYCQSYDSSLSGSYVFGTGTKVTVLGSRGGGGSGGGGSGGGGSLEMAQMQLVQSGAEVKKPGASVKVSCKASGYTLTELSMHWVRQAPGKGLEWMGGFDPEDGETIYAQKFQGRVTMTEDTSTDTAYMELSSLRSEDTAVYYCARMSSMYYDWGQGTLVTVSSTSGQAGQHHHHHHGAYPYDVPDYAS
notes: as for B1

One test deals with T1, Fc Receptor-like 5 (FcRL5), full …. Description: phage clone screening on cells. Here is the method: Once selected, positive scFv clones are further tested for their binding to FcRL5 (e.g., human FcRL5) on live 3T3 cell surfaces by flow cytometry. Briefly, phage clones are incubated with 3T3 cells over-expressing FcRL5. The cells are washed and then incubated with a mouse anti-M13 coat protein mAb. Cells are washed again and labeled with a PE-horse anti-mouse Ig prior to flow cytometry.
Phage′ display against FcRL5 was performed to enrich for scFv phage clones that bind to FcRL5 specifically. Screening was carried out on FcRL5 overexpressing 3T3 cells or 3T3 cells expressing FcRL1, 2, 3, 4 or 6 as a negative control (FIG. 2).
Regarding B1, the binding result is given as “binds”.

With B2, the binding result is on record as “binds”.

For the molecule B3, the binding result was “binds”.

Take B4: the binding result was “binds”.

For the molecule B5, the binding result is reported as “binds”.

As for B6, the binding result is “binds”.

On to B7, for which the binding result is recorded as “binds”.

Regarding B8, the binding result is on record as “binds”.

For B9, the binding result is given as “binds”.

In the case of B10, the binding result was “binds”.

Take B11: the binding result is reported as “binds”.

For B12, the binding result is reported as “binds”.

Regarding B13, the binding result was “binds”.

The target of the next test is T2, FcRL1, overexpressed on 3T3 cells. Description: phage clone on 3T3-FcRL1 cells.
For B1, the binding result is reported as “no binding”.

For B2, the binding result was “no binding”.

On to B3, for which the binding result is on record as “no binding”.

In the case of B4, the binding result is recorded as “no binding”.

For the molecule B5, the binding result is recorded as “no binding”.

Regarding B6, the binding result was “no binding”.

As for B7, the binding result is listed as “no binding”.

Consider B8, for which the binding result is “no binding”.

Consider B9, for which the binding result is recorded as “no binding”.

As for B10, the binding result was “no binding”.

Turning to B11, the binding result was “no binding”.

In the case of B12, the binding result is “no binding”.

As for B13, the binding result is on record as “no binding”.
